{"source": "paper PMC10720265", "experiment_in_all_cases": "MYC IP followed by mass spectrometry (IP-MS)", "conditions_in_all_cases": "three biological replicates; HeLa cell lysates; signals normalized to bait protein levels; read off a plot", "key": {"[1]": {"molecular_target": "ARS2, endogenous in HeLa cells"}, "[2]": {"molecular_target": "NCBP1, CBC component, endogenous in HeLa cells (UniProt Q09161)", "sequence (Q09161 whole entry)": "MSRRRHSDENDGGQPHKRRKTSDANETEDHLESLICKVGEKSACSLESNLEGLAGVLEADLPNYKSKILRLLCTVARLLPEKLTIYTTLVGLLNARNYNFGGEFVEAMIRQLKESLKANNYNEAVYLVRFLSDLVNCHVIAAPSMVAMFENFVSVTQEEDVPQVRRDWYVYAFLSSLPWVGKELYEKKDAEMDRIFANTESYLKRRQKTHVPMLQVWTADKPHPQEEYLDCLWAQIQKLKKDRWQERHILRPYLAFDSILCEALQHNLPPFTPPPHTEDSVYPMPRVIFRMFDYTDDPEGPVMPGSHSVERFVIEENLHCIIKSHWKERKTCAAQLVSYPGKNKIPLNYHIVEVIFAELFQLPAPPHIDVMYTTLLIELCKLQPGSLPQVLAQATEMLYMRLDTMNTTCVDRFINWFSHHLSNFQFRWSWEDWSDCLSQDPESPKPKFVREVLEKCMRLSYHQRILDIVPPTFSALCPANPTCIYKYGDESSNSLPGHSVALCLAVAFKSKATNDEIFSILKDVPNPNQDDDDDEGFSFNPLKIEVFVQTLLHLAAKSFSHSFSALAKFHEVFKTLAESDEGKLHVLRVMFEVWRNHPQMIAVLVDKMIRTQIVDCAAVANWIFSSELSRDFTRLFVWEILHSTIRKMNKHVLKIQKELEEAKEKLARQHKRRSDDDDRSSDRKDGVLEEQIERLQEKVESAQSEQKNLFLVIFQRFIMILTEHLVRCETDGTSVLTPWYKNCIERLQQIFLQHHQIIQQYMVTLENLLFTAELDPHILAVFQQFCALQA"}, "[3]": {"molecular_target": "NCBP2, CBC component, endogenous in HeLa cells (UniProt P52298)", "sequence (P52298 whole entry)": "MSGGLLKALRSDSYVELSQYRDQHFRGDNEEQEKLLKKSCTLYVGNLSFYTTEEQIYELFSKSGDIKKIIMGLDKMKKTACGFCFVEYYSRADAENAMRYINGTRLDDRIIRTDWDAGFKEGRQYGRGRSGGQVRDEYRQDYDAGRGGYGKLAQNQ"}}, "data": [{"substance": "Z1^1-209(WT), MYC-tagged N-terminal fragment of human ZFC3H1 (from UniProt O60293) … -> … (E->A; E->A; D->A; E->A; residue numbers not printed)", "values": [{"measurement": "other: log2 fold change (Z1 1-209(WT)/Z1 1-209(MUT))", "setting": "[1]", "value": 6.9, "unit": "log2"}, {"measurement": "other: log2 fold change (Z1 1-209(WT)/Z1 1-209(MUT))", "setting": "[2]", "value": 2.1, "unit": "log2"}, {"measurement": "other: log2 fold change (Z1 1-209(WT)/Z1 1-209(MUT))", "setting": "[3]", "value": 1.8, "unit": "log2"}]}]}
